This is an account of results in patent publication US20230272099A1 (Chugai, published 2023).

In experiment [1] the target is T1, hCD137 (FXa digested) (human, UniProt Q07011 24-186).
T1 construct: Factor Xa digestion and Protein A removed the Fc; also called human CD137 extracellular domain
In words: SPR, 1 mM AMP. The protocol: (§1) Biacore T200 (GE Healthcare) was used to analyze the interaction of antigen-antibody reaction between the anti-CD137 antibodies and hCD137 (FXa digest). […] For the running buffer, 20 mM ACES, 150 mM NaCl, 2 mM MgCl₂, 0.05% Tween20 (pH 7.4) was used, and 10 mM Glycine-HCl (pH 1.5) was used as the regeneration solution.
(§2) After capturing of the anti-CD137 antibodies suspended in TBS, 500 nM hCD137 (FXa digest) was injected into each flow cell at a flow rate of 10 μL/min for three minutes. This three-minute period served as the binding phase for hCD137 (FXa digest), and after the binding phase ended, the two-minute period of switching to the running buffer served as the dissociation phase for hCD137 (FXa digest). After completion of the dissociation phase, the regenerative solution was injected at a flow rate of 30 μl/min for 30 seconds. The above was the cycle for measuring the binding activity of anti-CD137 antibodies. The binding amount of hCD137 (FXa digest) that interacted with the anti-CD137 antibody in the binding phase was adjusted by the amount of antibody captured. Biacore T200 Evaluation Software Version 2.0 was used to display the binding amount (RU) per capture ligand 1 RU, and values of the antibody capture amount (amount of antibody captured) and antigen-binding amount were obtained. Since the binding amount of antigen reflects the binding activity, it can be said that dependence on a small molecule is recognized when the value in the presence of the small molecule (ATP, ADP or AMP) is higher than the value without the small molecule. In particular, the larger the difference is, the higher the dependence is on a small molecule.
In general terms: Surface plasmon resonance follows binding to a sensor surface in real time, without labels.

The target in experiment [2] is T1, hCD137 (FXa digested). Description: SPR, 1 mM ATP. How it is done:
as §1, §2

Experiment [3] addresses T1, hCD137 (FXa digested). Description: SPR, 10 uM ADP. How it is done: as §1, §2
In experiment [4] the target is T1, hCD137 (FXa digested). Description: SPR, 100 uM ADP. The protocol: as §1, §2
Experiment [5] concerns the target T1, hCD137 (FXa digested). In words: SPR, 100 uM AMP. The protocol:
as §1, §2

In experiment [6] the target is T1, hCD137 (FXa digested). Description: SPR, 100 uM ATP. The protocol: as §1, §2
The target in experiment [7] is T1, hCD137 (FXa digested). Description: SPR, no small molecule. How it is done: as §1, §2
For experiment [8], the target named is T2, biotinylated Fc-fused monkey CD137 (monkey, biotin on the AviTag).
T2 construct: also called cyCD137-Fc-BAP
T2 sequence (chain, as listed by the source limits assumed): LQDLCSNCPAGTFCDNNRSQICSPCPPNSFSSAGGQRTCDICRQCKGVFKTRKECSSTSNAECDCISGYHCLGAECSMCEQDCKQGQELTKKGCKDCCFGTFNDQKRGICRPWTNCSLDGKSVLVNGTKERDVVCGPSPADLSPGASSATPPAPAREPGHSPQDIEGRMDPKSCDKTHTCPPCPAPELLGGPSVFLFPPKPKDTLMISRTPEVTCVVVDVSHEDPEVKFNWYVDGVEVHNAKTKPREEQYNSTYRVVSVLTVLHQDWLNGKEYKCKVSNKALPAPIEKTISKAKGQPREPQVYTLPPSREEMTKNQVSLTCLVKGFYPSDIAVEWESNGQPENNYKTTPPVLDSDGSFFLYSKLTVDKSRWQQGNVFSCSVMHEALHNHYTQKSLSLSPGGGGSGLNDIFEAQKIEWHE
In words: ELISA, 1 mM ADP, 10 ug/mL. Set-up: reference not given here. How it is done: (§3) The obtained antibodies were evaluated for binding to monkey CD137 by ELISA. The cyCD137-Fc-BAP prepared in Reference Example 1 was immobilized on Streptawell microtiter plates. After the unbound antigen was removed from the plates by washing each well of the plates with the wash buffer, the wells were blocked with 150 μL of a blocking buffer (TBS with 2% BSA) for 1 hour or more. The blocking buffer was removed from each well, and 100 μL of the purified antibodies diluted in TBS with a final concentration of 1 mM ADP, or TBS with a final concentration 1 mM ADP was added to each well. The plate to which the antibody was added was shaken at 600 rpm for 1 hour. The AP-conjugated anti-human lambda antibodies (BETHYL) diluted in TBS with a final concentration of 1 mM ADP were added to each well after washing with a wash buffer (TBS with 0.1% Tween20) containing a final concentration of 1 mM ADP. After incubation for one hour and washing with a wash buffer containing a final concentration of 1 mM […], BluePhos phosphate substrate (KPL) was added. Color development was measured by absorbance at 600 nm. Samples with a concentration-dependent increase in the absorbance ratio can be said to be bound to monkey CD137.
For orientation: In an ELISA, binding on a coated surface is turned into a signal by an enzyme label.

The target of experiment [9] is T2, biotinylated Fc-fused monkey CD137. Description: ELISA, 1 mM ADP, 2.5 ug/mL. Set-up: reference not given here. The protocol: as §3
Experiment [10] has the same target. In words: ELISA, 1 mM ADP, 0.010 ug/mL. Set-up: reference not given here. How it is done:
as §3

For experiment [11] the target is unchanged. In words: ELISA, 1 mM ADP, 0.039 ug/mL. Set-up: reference not given here. The protocol:
as §3

Experiment [12] shares this target. Description: ELISA, 1 mM ADP, 0.156 ug/mL. Set-up: reference not given here. How it is done:
as §3

Experiment [13] has the same target. In words: ELISA, 1 mM ADP, 0.625 ug/mL. Set-up: reference not given here. How it is done:
as §3

Experiment [14] deals with T1, hCD137 (FXa digested). In words: SPR 37C, no ATP. The protocol: (§4) Measurements of human CD137 binding were taken at 37° C. using 20 mM ACES (pH 7.4), 150 mM NaCl, 2 mM MgCl₂, and 0.05% Tween20 as running buffer. At first, antibodies were captured by interacting antibody solutions prepared in running buffer with the rabbit anti-mouse IgG (Thermo Scientific)-immobilized Series S Sensor Chip CM5 (GE Healthcare). The human CD137-binding activity in the presence of ATP and in the absence of ATP was then assessed by interacting with a human CD137 solution prepared in running buffer supplemented with a desired concentration of ATP, or a human CD137 solution prepared in running buffer without ATP. […] The chip was regenerated using 25 mM NaOH and 10 mM Glycine-HCl (pH 1.5), and measurements were performed by repeatedly capturing antibodies. Dissociation constant (KD) of the respective antibodies for human CD137 was calculated using Biacore T200 Evaluation Software 2.0. Specifically, the association rate constant ka (L/mol/s) and the dissociation rate constant kd (1/s) were calculated by global fitting of the sensorgrams obtained by measurement with the 1:1 Langmuir binding model, and the dissociation constant KD (mol/L) was calculated from these values.

In experiment [15] the target is T1, hCD137 (FXa digested). In words: SPR 37C, 1 uM ATP. How it is done:
as §4

For experiment [16], the target named is T1, hCD137 (FXa digested). Description: SPR 37C, 10 uM ATP. How it is done:
as §4

Experiment [17] has as its target T1, hCD137 (FXa digested). Description: SPR 37C, 100 uM ATP. How it is done: as §4

Changes are numbered by the printed parent chain.

T1 sequence (Q07011 other isoform, or with tags, fused parts or gaps limits assumed): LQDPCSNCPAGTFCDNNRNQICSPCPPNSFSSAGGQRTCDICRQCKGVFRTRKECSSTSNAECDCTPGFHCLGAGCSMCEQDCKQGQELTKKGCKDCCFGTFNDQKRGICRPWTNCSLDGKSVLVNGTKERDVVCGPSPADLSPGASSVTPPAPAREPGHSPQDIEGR

B1: dBBAT119-P253 (antibody, human IgG1, lambda, V domains shown)
VH: EVQLVESGGDLVKPGGGLRLSCAASGFTFSTFTMNWVRQAPGKGLEWVSSISSRSNYKSYADSVKGRFTISRDNAKNSLYLQMNSLRAEDTAVYYCARYGAKNFMNWVFDYWGQGTLVTVSS
VL: QSALTQPPSASGSPGQTVTISCTGTSTDVGFYNYVSWYQQHPGKAPKLMIYYTSKRPSGVPDRFSGSKSGNTASLTVSGLQAEDEADYFCSSYRYDHQVSFGGGTKLTVLG
notes: also called dBBAT119H-P253/dBBAT119L-LamLib
Consider B1, for which the binding amount in experiment [1] is 58.6 RU; in [2], 45.7 RU; in [3], 67.2 RU; in experiment [4], 112 RU; in experiment [5], 26.9 RU; in [6], 12.9 RU. This molecule registered a binding amount in experiment [7] of 3.3 RU. The absorbance ratio in [8] was found to be 55.3; in experiment [9], 56.6; in experiment [10], 10.2; in experiment [11] it was 26.6; in experiment [12] it was 47.7; in experiment [13], 57.2.

B2: dBBAT021-P253 (antibody, human IgG1, lambda, V domains shown)
VH: B1 VH with T31S, F32Y, K58R, S59D, A101G, F104I, M105L
VL: B1 VL with T27S, Y52E, T53V, R94S, Y95S, H97T, Q98H, S100G
Take B2: the binding amount was 5.7 RU in [1]; 9.2 RU in [2]; 19.6 RU in [3]; 56.6 RU in [4]; 3 RU in [5]; 2.4 RU in [6]. For the same molecule, the binding amount in [7] was 2.9 RU. Besides, the absorbance ratio in experiment [8] was 40.5; in [9], 14; in experiment [10], 0.9; in experiment [11] it was 1.2; in experiment [12] it was 1.7; in experiment [13], 4.6.

B3: 20H4.9-MB110/20H4.9LC-mk0 (antibody, mouse IgG1, kappa)
heavy: QVQLQQWGAGLLKPSETLSLTCAVYGGSFSGYYWSWIRQSPEKGLEWIGEINHGGYVTYNPSLESRVTISVDTSKNQFSLKLSSVTAADTAVYYCARDYGPGNYDWYFDLWGRGTLVTVSSAKTTPPSVYPLAPGSAAQTNSMVTLGCLVKGYFPEPVTVTWNSGSLSSGVHTFPAVLQSDLYTLSSSVTVPSSTWPSETVTCNVAHPASSTKVDKKIVPRDCGCKPCICTVPEVSDVFIFPPKPKDVLTITLTPKVTCVVVDISKDDPEVQFSWFVDDVEVHTAQTQPREEQFNSTFRSVSELPIMHQDWLNGKEFKCRVNSAAFPAPIEKTISKTKGRPKAPQVYTIPPPKEQMAKDKVSLTCMITDFFPEDITVEWQWNGQPAENYKNTQPIMDTDGSYFVYSKLNVQKSNWEAGNTFTCSVLHEGLHNHHTEKSLSHSPGK
light: EIVLTQSPATLSLSPGERATLSCRASQSVSSYLAWYQQKPGQAPRLLIYDASNRATGIPARFSGSGSGTDFTLTISSLEPEDFAVYYCQQRSNWPPALTFGGGTKVEIKRADAAPTVSIFPPSSEQLTSGGASVVCFLNNFYPKDINVKWKIDGSERQNGVLNSWTDQDSKDSTYSMSSTLTLTKDEYERHNSYTCEATHKTSTSPIVKSFNRNEC
notes: also called NS1-MB110
With B3, the Kd (commonly the equilibrium constant for the complex coming apart) in experiment [14] was found to be 61 nM; in experiment [15], 56.5 nM; in experiment [16], 53.9 nM; in [17], 51.9 nM.

B4: 20H4.9-MB492/20H4.9LC-mk0 (antibody, mouse IgG1, kappa)
heavy: B3 heavy with T231E, V232P, P233N, S236E, N322D
light: B3 light
notes: also called NS1-MB492
Consider B4, for which the equilibrium dissociation constant (Kd) is 61.6 nM in experiment [14], 54.9 nM in experiment [15], 53.5 nM in [16] and 50.4 nM in experiment [17].

B5: 20H4.9-mIgG1/20H4.9LC-mk0 (antibody)
heavy: B3 heavy with D237S
light: B3 light
notes: also called NS1-mIgG1
As for B5, the Kd in experiment [14] was 61.7 nM; in [15] it was 56.2 nM; in experiment [16], 54.4 nM; in experiment [17], 53.6 nM.
